Results on five molecules are retold here after article PMC4655355, “Structural insights into YfiR sequestering by YfiB in Pseudomonas aeruginosa PAO1” (Scientific Reports, 2015).

Where a chain is given by its changes, count along the chain named. Numbers in names are those of the source.

B1: YfiR(C71S) (domain or fragment)
chain: DDARTSIEQRSNAVSQVLLGIFSYVRWPKEPAVLQLSVVGPTEYADGLLRGMVQANGRRVHAERRAVDNPDLGTLCNVIYLGVVDERERQQVFRSLAGHPVLSISERGTECSVGSMFCLNVGGPRITFEANLDSIARSGVRVHPSVLKLARRQATP
notes: YfiR (PA1121) of Pseudomonas aeruginosa PAO1, residues 35-190, with C71S; the methods describe only the wild-type construct; also called C71S mutant of YfiR; not shown: Trx, N-terminal, cleaved
B2: YfiR (residues 35–190) (domain or fragment)
chain: B1 chain with S37C
notes: YfiR (PA1121) of Pseudomonas aeruginosa PAO1, residues 35-190; the N-terminal 34 residues (signal peptide) left out; cloned in pET-32a; purified on Ni-NTA, tag removed with PPase; also called PA1121; wild-type YfiR; source: E. coli, purified (Ni-NTA, ResourceS, Superdex75); not shown: Trx, N-terminal, cleaved
B3: YfiB(59–168) (domain or fragment)
chain: MSSKVLFGNNLDRLNPDSRNTLTKIARALLAVDIDKVRLEGHTDNYGDEGYNQKLSERRAESVAAVFREAGMPAANIEVRGLGMSKPVADNKTRAGRSENRRVAIIVPAE
notes: cloned in pET-32a; tag removed with PPase on the resin; also called shorter YfiB construct; source: E. coli, purified (Ni-NTA, Hitrap S, Superdex75)
B4: YfiB(27–168) (domain or fragment)
chain: QTKPPQTGLSAEQIAVLQEQGFELRDEGWEFGMSSKVLFGNNLDRLNPDSRNTLTKIARALLAVDIDKVRLEGHTDNYGDEGYNQKLSERRAESVAAVFREAGMPAANIEVRGLGMSKPVADNKTRAGRSENRRVAIIVPAE
notes: signal peptide 1-25 and lipid acceptor Cys26 left out; cloned in pGEX-6p-1; GST removed with PPase on the resin; also called PA1119; longer YfiB construct; source: E. coli, purified (GST column, Hitrap Q, Superdex75)

Series [1] deals with YfiB W55L (Pseudomonas aeruginosa PAO1) (UniProt Q9I4L6). The series can be described thus: AUC; single purified proteins, 400 μL at 3 mg ml^-1 in 20 mM Tris-HCl, 200 mM NaCl; 42,000 rpm, 277 K, interference detection; SEDFIT.
Series [2] concerns the molecule itself. The series can be described thus: crystal structure; YfiR(C71S)-YfiB(59–168) complex, 1.97 Å; proteins mixed 1:1; 0.1 M HEPES pH 7.5, 1.8 M ammonium sulfate, 293 K.
Series [3] concerns the molecule itself. The series can be described thus: AUC; YfiB-YfiR complex at 10 mg ml^-1 in 20 mM Tris-HCl, 200 mM NaCl; 42,000 rpm, 277 K, interference detection; SEDFIT.
The series “YfiR(C71S)” deals with B1. Description: crystal structure; YfiR(C71S)-YfiB(59–168) complex, 1.97 Å; proteins mixed 1:1; 0.1 M HEPES pH 7.5, 1.8 M ammonium sulfate, 293 K. The following applies: both partners purified.
The series “YfiR (residues 35–190)” concerns the target B2. The series can be described thus: AUC; YfiB-YfiR complex at 10 mg ml^-1 in 20 mM Tris-HCl, 200 mM NaCl; 42,000 rpm, 277 K, interference detection; SEDFIT. Conditions: both partners purified.
Series [4] concerns the molecule itself. Description: AUC; single purified proteins, 400 μL at 3 mg ml^-1 in 20 mM Tris-HCl, 200 mM NaCl; 42,000 rpm, 277 K, interference detection; SEDFIT.

As for “YfiB W55L (from UniProt Q9I4L6 27-168) (domain or fragment)”, in series [1], the stoichiometry N came to 2.
Consider B1, for which the binding result in series [2] is recorded as “binds”.
As to B2, the “stoichiometry N” value in series [3] was determined as 2.
For B3, in the series with YfiR(C71S), the binding result is given as “binds”. In addition, in the series with YfiR (residues 35–190), the “stoichiometry N” value was 1 YfiB per YfiR (2:2).
Regarding B4, the “stoichiometry N” value in series [4] worked out at 2.

What is called stoichiometry N is the number of molecules, sites or subunits per partner or assembly.
